The source of these data is US20110223183A1.

The test deals with Flt1/VEGFR1 (human) (UniProt P17948). In words: cell-based or functional assay.
Sequence of UniProt P17948 (P17948 27-1338): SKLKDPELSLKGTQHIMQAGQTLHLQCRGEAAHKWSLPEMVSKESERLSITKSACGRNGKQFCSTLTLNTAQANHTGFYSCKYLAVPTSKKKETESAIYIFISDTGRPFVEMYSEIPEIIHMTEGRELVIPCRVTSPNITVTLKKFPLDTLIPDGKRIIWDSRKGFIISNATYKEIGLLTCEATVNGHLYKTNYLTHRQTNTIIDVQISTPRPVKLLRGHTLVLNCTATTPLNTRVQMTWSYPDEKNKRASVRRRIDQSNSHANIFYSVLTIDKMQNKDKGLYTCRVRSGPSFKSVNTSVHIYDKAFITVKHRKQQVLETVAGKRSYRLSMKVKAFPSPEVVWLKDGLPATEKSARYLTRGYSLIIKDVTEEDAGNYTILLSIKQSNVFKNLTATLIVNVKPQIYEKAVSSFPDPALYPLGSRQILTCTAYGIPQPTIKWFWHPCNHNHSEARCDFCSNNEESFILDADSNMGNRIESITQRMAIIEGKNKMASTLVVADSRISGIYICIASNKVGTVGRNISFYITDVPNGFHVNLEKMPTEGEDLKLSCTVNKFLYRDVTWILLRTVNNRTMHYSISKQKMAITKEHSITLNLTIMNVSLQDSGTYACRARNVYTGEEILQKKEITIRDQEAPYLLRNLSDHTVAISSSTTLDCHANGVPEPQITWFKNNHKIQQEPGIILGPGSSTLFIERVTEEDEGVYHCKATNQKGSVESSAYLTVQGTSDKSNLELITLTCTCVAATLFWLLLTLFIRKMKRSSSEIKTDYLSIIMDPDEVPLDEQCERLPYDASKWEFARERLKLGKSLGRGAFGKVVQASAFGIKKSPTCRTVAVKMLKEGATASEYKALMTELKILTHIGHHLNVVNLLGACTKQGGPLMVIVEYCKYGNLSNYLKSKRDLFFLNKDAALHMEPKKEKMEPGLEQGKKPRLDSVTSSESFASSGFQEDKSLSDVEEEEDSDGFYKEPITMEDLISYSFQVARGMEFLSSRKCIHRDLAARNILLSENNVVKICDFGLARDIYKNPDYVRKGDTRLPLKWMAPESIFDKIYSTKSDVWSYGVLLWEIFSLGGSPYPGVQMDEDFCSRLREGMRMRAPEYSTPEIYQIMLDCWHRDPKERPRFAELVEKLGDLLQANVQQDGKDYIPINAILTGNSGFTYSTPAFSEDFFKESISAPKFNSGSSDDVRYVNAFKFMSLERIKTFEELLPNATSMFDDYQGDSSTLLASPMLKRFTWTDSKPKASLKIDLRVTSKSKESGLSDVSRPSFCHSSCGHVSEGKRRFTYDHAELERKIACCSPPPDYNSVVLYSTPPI

Consider placental growth factor (ligand), for which the HUVEC buds containing multiple filopodia turned out to be 250%.
